This note sets out measurements from patent US20090155164A1 (Amgen, published 2009).

For orientation: Ki means a dissociation constant, usually derived from enzyme kinetics or from competition with a known ligand. As usually defined, the Kd is the equilibrium constant for the complex coming apart. Broadly, the koff is a measure of how fast the partners let go of each other. Broadly, the kon is the second-order rate constant of association.

Test [1] concerns the target T1, human c-fms, full length, on cells (human, UniProt P07333 20-972).
T1 construct: whole, on cells; also called CSF-1R
The experiment in a line: inhibition of 125I-CSF-1 binding to AML-5 cells; competitor: 125I-CSF-1 (summary table). The procedure: (§1) A saturation radioligand binding experiment was performed in conjunction with each inhibition assay in order to determine both a KD and […] for hCSF-1 binding to c-fms expressed on the surface of AML-5 cells. Mixtures were set up in 96-well round-bottom microtiter plates with total volumes of 150 μl/well. All reagents were diluted in binding media containing 0.2% sodium azide and experiments were conducted at 4° C. to minimize potential receptor internalization and shedding.
(§2) Both assays were incubated at 4° C. on a miniorbital shaker for 4 hours, the length of time needed to reach equilibrium as determined in time course experiments. Two 60 μl aliquots of each incubation mixture were transferred to chilled 400 μl polyethylene centrifuge tubes containing 200 μl phthalate oil and spun for 1.5 minutes in a 4° C. tabletop microfuge (Sorvall,) at 9615×g to separate cell associated ¹²⁵I-hCSF-1 from free ¹²⁵I-hCSF-1. The oil tubes were cut, and each cell pellet and supernatant collected in individual 12×75 mm glass tubes and loaded on a COBRA gamma counter (Packard Instrument Company) for cpm measurements. Cpm from duplicate aliquots taken from each well were averaged for analysis.
(§3) Mean K₁ values from 2 experiments were reported (see, TABLE 13).

Test [2] concerns the target T2, cynomolgus monkey c-fms on primary bone marrow cells (cynomolgus monkey). As to the kind of experiment: cell-based or functional assay.
For test [3], the target named is T3, monomeric human c-fms (residues 1-512)-pHis (human, UniProt P07333 20-512).
T3 construct: Construct stated as residues 1-512; signal stated as amino acids 1-19 and left out; also called human c-fms (1-512).pHIS; monomeric c-fms
The experiment in a line: Biacore, monomeric c-fms. How it is done:
(§4) The binding affinities of the somatic mutation corrected antibodies to monomeric c-fms protein were measured by surface plasmon resonance using a Biacore 3000 instrument.
(§5) The affinity of human c-fms (1-512). pHIS (Amgen) for the anti-c-fms mAbs was measured by Biacore. Experiments were conducted at 25° C. using a Biacore 3000 instrument (Biacore AB) equipped with a CM4 sensor chip. Sensor chips, amine coupling reagents (EDC (1-ethyl-3(3-dimethylaminopropyl)-carbodiimide hydrochloride), NHS (N-hydroxysuccinimide), and ethanolamine-HCl, pH 8.5), 10 mM sodium acetate, pH 5.5, HBS-EP (0.01 M HEPES pH 7.4, 0.15 M NaCl, 3 mM EDTA, 0.005% v/v Surfactant P20), and 10 mM glycine-HCl, pH 1.5 were purchased from Biacore AB. Bovine serum albumin (BSA, Bovuminar Standard Powder) was purchased from Serological Corporation. AffiniPure Goat Anti-Human IgG, Fcγ Fragment Specific was purchased from Jackson ImmunoResearch Laboratories.
(§6) Other anti-c-fms antibodies were tested in a similar manner, but changes were made to the protocol to account for differences in binding characteristics.
Background: Surface plasmon resonance follows binding to a sensor surface in real time, without labels.

The target in test [4] is T2, cynomolgus monkey c-fms on primary bone …. The experiment in a line: cell-based or functional assay. The source holds these as a separate data set.
For test [5], the target named is T1, human c-fms, full length, on cells. The experiment in a line: cell-based or functional assay.
Test [6] shares this target. The experiment in a line: inhibition of 125I-hCSF-1 binding to AML-5 cells, 4 C; competitor: 125I-hCSF-1. The procedure:
as §1
(§7) For the saturation binding assay, ¹²⁵I-hCSF-1 was serially diluted 2-fold, starting at a concentration of ˜1.7 nM and going out 12 wells to a concentration of ˜1.5 pM. Nonspecific binding was measured at a single concentration of ¹²⁵I-hCSF-1 (˜80 pM, in triplicate) in the presence of a 1,000-fold molar excess of unlabeled hCSF-1, and assumed to be a linear function of the concentration of radiolabeled hCSF-1 present.

The target of test [7] is T3, monomeric human c-fms (residues …). As to the kind of experiment: SPR, Biacore 3000, monomeric c-fms; reference: parent 1.109. The procedure: as §4, §5, §6
The target is the same in test [8]. The experiment in a line: Biacore 3000, 25 C; mAb captured on goat anti-human IgG Fc, monomeric c-fms(1-512)-pHis analyte, 1:1 fit. How it is done:
(§8) Anti-c-fms 1.2 or 1.2 SM at 0.25 μg/ml was injected over goat anti-human IgG, Fcγ in one flow cell for 2 minutes at 10 μl/min to obtain a surface density of ˜47 RUs. Another flow cell with goat anti-human IgG, Fcγ alone was used as a reference surface. Each assay started with ten cycles of buffer as the analyte to stabilize the signal. […] Each complex was allowed to associate for 2 minutes, and dissociate for 5 minutes. The surfaces were regenerated after each c-fms or buffer injection with a 30-second pulse of 10 mM glycine HCl, pH 1.5 at 100 μl/min, followed by a 30-second injection of buffer.
as §6
(§9) Data was double referenced by subtracting the reference surface responses to remove bulk refractive index changes, and then subtracting the averaged buffer blank response to remove systematic artifacts from the experimental flow cells.

The target is the same in test [9]. The experiment in a line: Biacore (summary table). How it is done:
as §8, §6, §9

Test [10] concerns the target T1, human c-fms, full length, on cells. As to the kind of experiment: inhibition of 125I-hCSF-1 binding to AML-5 cells, 4 C; unlabeled hCSF-1, competitive inhibition of 125I-hCSF-1, 4 C. How it is done:
as §1, §2, §3

The target is the same in test [11]. As to the kind of experiment: saturation radioligand binding on AML-5 cells, 4 C; 125I-labelled hCSF-1, saturation binding, 4 C. How it is done: as §7, §2, §3
The target is the same in test [12]. The experiment in a line: cell-based or functional assay. The source holds these as a separate data set.
For test [13] the target is unchanged. The experiment in a line: cell-based or functional assay. The source holds these as a separate data set.
In test [14] the target is T2, cynomolgus monkey c-fms on primary bone …. The experiment in a line: cell-based or functional assay. The source holds these as a separate data set.
For test [15], the target named is T1, human c-fms, full length, on cells. As to the kind of experiment: cell-based or functional assay. This is another data set of the same source.
Test [16] has as its target T3, monomeric human c-fms (residues …). As to the kind of experiment: SPR, Biacore 3000, monomeric c-fms; reference: parent 2.360. How it is done: as §4, §5, §6

T3 sequence (P07333 20-512): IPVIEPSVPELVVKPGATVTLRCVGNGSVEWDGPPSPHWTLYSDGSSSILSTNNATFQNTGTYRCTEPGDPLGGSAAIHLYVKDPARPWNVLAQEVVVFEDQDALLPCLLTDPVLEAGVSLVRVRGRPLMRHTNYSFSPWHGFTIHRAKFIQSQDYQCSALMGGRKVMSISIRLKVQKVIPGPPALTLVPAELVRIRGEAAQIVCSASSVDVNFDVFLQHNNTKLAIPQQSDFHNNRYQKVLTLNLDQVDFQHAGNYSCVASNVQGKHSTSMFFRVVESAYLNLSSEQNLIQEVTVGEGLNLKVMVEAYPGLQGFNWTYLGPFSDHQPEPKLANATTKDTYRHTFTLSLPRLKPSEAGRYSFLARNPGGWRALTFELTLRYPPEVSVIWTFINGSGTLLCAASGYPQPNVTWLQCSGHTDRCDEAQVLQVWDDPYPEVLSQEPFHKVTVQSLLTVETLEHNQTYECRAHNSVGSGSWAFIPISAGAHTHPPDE
T1 sequence (P07333 20-972): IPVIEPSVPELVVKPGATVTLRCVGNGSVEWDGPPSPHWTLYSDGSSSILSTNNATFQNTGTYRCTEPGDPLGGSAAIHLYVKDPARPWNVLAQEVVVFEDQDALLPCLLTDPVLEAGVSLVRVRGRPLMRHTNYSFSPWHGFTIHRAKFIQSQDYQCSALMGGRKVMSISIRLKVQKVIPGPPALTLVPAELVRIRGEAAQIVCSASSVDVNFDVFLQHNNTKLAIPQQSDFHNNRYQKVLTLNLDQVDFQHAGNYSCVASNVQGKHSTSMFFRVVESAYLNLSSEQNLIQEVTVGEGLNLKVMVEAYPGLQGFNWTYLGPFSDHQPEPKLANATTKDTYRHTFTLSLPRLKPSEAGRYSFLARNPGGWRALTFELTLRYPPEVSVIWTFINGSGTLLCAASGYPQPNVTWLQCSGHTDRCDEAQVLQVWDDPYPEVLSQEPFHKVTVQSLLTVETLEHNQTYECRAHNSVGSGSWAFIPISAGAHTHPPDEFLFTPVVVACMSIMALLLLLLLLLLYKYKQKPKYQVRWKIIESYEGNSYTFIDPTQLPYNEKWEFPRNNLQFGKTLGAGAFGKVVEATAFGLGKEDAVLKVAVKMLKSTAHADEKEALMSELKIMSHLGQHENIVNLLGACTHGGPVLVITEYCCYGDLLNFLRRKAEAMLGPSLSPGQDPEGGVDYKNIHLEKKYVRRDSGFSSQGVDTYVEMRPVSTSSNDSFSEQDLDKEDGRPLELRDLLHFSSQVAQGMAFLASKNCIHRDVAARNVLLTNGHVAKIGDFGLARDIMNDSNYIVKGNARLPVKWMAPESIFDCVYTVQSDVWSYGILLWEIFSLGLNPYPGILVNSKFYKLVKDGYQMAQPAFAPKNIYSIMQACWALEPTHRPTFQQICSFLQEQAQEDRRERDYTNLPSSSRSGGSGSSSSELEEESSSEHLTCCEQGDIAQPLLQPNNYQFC

B1: anti-c-fms IgG2 clone 1.109 SM (somatic mutation cured) (antibody, V domains shown)
VH: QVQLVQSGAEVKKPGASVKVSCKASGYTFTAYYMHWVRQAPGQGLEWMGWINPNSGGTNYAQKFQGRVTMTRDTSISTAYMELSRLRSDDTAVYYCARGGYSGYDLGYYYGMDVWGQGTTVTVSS
VL: DIQMTQSPSSLSASVGDRVTITCQASQDISNFLDWYQQKPGKAPKLLIYDASDLDPGVPSRFSGSGSGTDFTFTISSLQPEDIATYYCQQYVSLPLTFGGGTKVEIKR
notes: Recombinant IgG2 kappa; light chain Asn-28 to Asp and Asn-45 to Lys
Regarding B1, the Ki in test [1] and in [6] was 0.0097 nM each time. Moreover, in test [2], the “Cynomolgus bone marrow bioassay IC50” value is 0.023 nM. The dissociation constant (Kd) in test [3], in [8] and in test [9] was 0.102 nM throughout. Further, the “Cynomolgus Bone Marrow Proliferation IC50” value in test [4] stood at 0.023 nM. In addition, the “antibody concentration that prevented CSF-1-induced pTyr/c-fms, 293T/c-fms cells” value in [5] is at least 0.1 µg/ml. The “fold loss of affinity against the parent antibody” value in test [7] was determined as 2 fold. Further, the koff in test [8] stood at 0.000271 s⁻¹. The molecule also showed a kon in test [8] of 2.66e+06 M⁻¹ s⁻¹.

B2: recombinant human CSF-1 (ligand, UniProt P09603 33-190, looked up)
chain: EEVSEYCSHMIGSGHLQSLQRLIDSQMETSCQITFEFVDQEQLKDPVCYLKKAFLLVQDIMEDTMRFRDNTPNAIAIVQLQELSLRLKSCFTKDYEEHDKACVRTFYETPLQLLEKVKNVFNETKNLLDKDWNIFSKNCNNSFAECSSQDVVTKPDCN
notes: also called hCSF-1
B2 gave a Ki in test [10] of 0.0178 nM. In [11], this molecule displayed a Kd of 0.046 nM.

B3: anti-c-fms IgG2 clone 1.2 SM (somatic mutation cured) (antibody, V domains shown)
VH: QVQLVQSGAEVKKPGASVKVSCKASGYTFTSYGISWVRQAPGQGLEWMGWISAYNGNTNYAQKLQGRVTMTTDTSTSTAYMELRSLRSDDTAVYYCARESWFGEVFFDYWGQGTLVTVSS
VL: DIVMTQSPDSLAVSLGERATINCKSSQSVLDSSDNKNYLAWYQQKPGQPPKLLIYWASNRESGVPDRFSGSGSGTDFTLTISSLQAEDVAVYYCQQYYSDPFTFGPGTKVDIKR
notes: Recombinant IgG2 kappa; light chain Ser-78 reverted to germline Thr; also called 1.2.1 SM; antibody 1.2 SM
Regarding B3, the affinity in [1], expressed as Ki, was 0.0115 nM. Further, the “AML-5 bioassay IC50” value in [12] worked out at 0.012 nM. For the same molecule, in test [2], the “Cynomolgus bone marrow bioassay IC50” value is 0.081 nM. The molecule further had a Kd in [3] of 0.548 nM. Moreover, in test [13], the “IC50 of 1.2 SM in the presence of hCSF-1, human bone marrow monocytic cell proliferation, Average” value came to 0.0155 nM; the “IC50 of 1.2 SM in the presence of hCSF-1, human bone marrow monocytic cell proliferation, Expt. 1” value was 0.0155 nM; the “IC50 of 1.2 SM in the presence of hCSF-1, human bone marrow monocytic cell proliferation, Expt. 2” value was found to be 0.0201 nM; the “IC50 of 1.2 SM in the presence of hCSF-1, human bone marrow monocytic cell proliferation, Expt. 3” value worked out at 0.0109 nM. Moreover, in test [14], the “IC50 of 1.2 SM in the presence of hCSF-1, cynomolgus bone marrow monocytic cell proliferation, Average” value is 0.0327 nM; the “IC50 of 1.2 SM in the presence of hCSF-1, cynomolgus bone marrow monocytic cell proliferation, Expt. 1” value was found to be 0.0425 nM; the “IC50 of 1.2 SM in the presence of hCSF-1, cynomolgus bone marrow monocytic cell proliferation, Expt. 2” value is 0.026 nM; the “IC50 of 1.2 SM in the presence of hCSF-1, cynomolgus bone marrow monocytic cell proliferation, Expt. 3” value is 0.0229 nM. Also, in test [15], the “AML-5 proliferation IC50” value was found to be 0.012 nM. Also, in [4], the “Cynomolgus Bone Marrow Proliferation IC50” value worked out at 0.081 nM. Further, in [5], the “antibody concentration that prevented CSF-1-induced pTyr/c-fms, 293T/c-fms cells” value is at least 0.1 µg/ml. Also, the Ki in test [6] is 0.0115 nM. In [8], the Kd amounted to 0.548 nM, the koff is 0.00199 s⁻¹ and the kon worked out at 3.62e+06 M⁻¹ s⁻¹. This molecule also gave a Kd in test [9] of 0.548 nM.

B4: anti-c-fms IgG2 clone 2.360 SM (somatic mutation cured) (antibody, V domains shown)
VH: QVQLVQSGAEVKKPGASVKVSCKVSGYTLTELSMHWVRQAPGKGLEWMGGFDPEDGETIYAQKFQGRVTMTEDTSTDTAYMELSSLRSEDTAVYYCATGVMITFGGVIVGHSYYGMDVWGQGTTVTVSS
VL: DIQMTQSPSSLSASVGDRVTITCRASQGINNYLAWYQQKPGKVPKLLIYVASTLQSGVPSRFSGSGSGTDFTLTISSLQPEDVATYYCQKYNSGPFTFGPGTKVDIKR
notes: Recombinant IgG2 kappa; heavy chain Val-79 to Ala, light chain Gln-45 to Lys
Turning to B4, the Ki in [1] and in test [6] was around 0.9 nM each time. For the same molecule, in test [16], the “fold loss of affinity against the parent antibody” value was found to be 2 fold. Moreover, the Kd in test [3], in test [8] and in test [9] was 1.2 nM in each case. The “AML-5 proliferation assay, loss in potency relative to the parent IgG2 antibody” value in [5] turned out to be 10 fold. The molecule also gave a koff in test [8] of 0.000955 s⁻¹. Further, in test [8], the kon amounted to 794000 M⁻¹ s⁻¹.
